Results taken from paper PMC4141501.
Read-outs that look alike come from different tables or passages of the source.

Assays:
[1] = molecular target: human EWI2 wild-type with palmitate-free cytoplasmic cysteines (after hydroxylamine or 2BP) (human) (UniProt Q969P0); assay: cross-linking
[2] = molecular target: human EWI2 wild-type with palmitate-free cytoplasmic cysteines (after hydroxylamine or 2BP) (human) (UniProt Q969P0); assay: cross-linking; remark: listed apart in the source

percent of EWI2 molecules dimerized [1]: 11% | stoichiometry N [1]: 2 | percent of EWI2 molecules dimerized [2]: 78% | stoichiometry N [2]: 2
Substance: human EWI2 wild-type with palmitate-free cytoplasmic cysteines (after hydroxylamine or 2BP) (from UniProt Q969P0 28-613) (natural protein)
